The record followed here is US20230272055A1, “ANTI-MUTANT CALRETICULIN (CALR) ANTIBODIES AND USES THEREOF” (Incyte Corporation, priority 2021, published 2023).

Where only a bound is given, the exact number is not on record here.

The assay relates to BaF3 cells expressing MPL/mutCALR Type 1. The experiment in a line: Example 16 inhibition of cell proliferation, CellTiter-Glo 72 hours. The format is cell-based. Here is the method:
The ability of the five antibodies shown here to inhibit cell proliferation was tested. Inhibition of cell proliferation was assessed using engineered BaF3 cells expressing MPL/mutCALR Type 1. Cells were plated at 5,000 cells per well in RPMI 1640+2% FBS, antibodies were added and incubated for 72 hours, followed by assessment of cell viability using the CellTiter-Glo Luminescent Cell Viability Assay (Promega, Madison, Wis.) and Top Count (Perkin Elmer, Boston, Mass.) or Pherastar (BMG Labtech, Ortenberg, Germany) for luminescence quantification. […] The data shown in FIGS. 21A and 21B were compiled from different experiments.
A general note: Cellular ATP, detected with luciferase, serves as a proxy for viable cell number.

B1: AB4: anti-mutCALR antibody including VH and VL regions of antibody 8B2-H6 from WO2016087514 fused to human constant regions (antibody)
heavy: EVQLKQSGPELVKTGASVKISCKASGYSFTGYYIHWVKQSHGKSLEWIGYISCYNGASSYNQKFKGKATFTVDTSSSTAYMQFNSLTSGDSAVYYCASSMDYWGQGTSVTVSSASTKGPSVFPLAPSKSTSGGTAALGCLVKDYFPEPVTVSWNSGALTSGVHTFPAVLQSSGLYSLSSVVTVPSSSLGTQTYICNVNHKPSNTKVDKKVEPKSCDKTHTCPPCPAPELLGGPSVFLFPPKPKDTLMISRTPEVCVVVDVSHEDPEVKFNWYVDGVEVHNAKTKPREEQYNSTYRVVSVLTVLHQDWLNGKEYKCKVSNKALPAPIEKTISKAKGQPREPQVYTLPPSREEMTKNQVSLTCLVKGFYPSDIAVEWESNGQPNNYKTTPPVLDSDGSFFLYSKLTVDKSRWQQGNVFSCSVMHEALHNHYTQKSLSLSPG
light: DVVMTQTPLTLSVTIGQPASISCKSSQSLLDSDGKTYLNWLLQRPGQSPKRLIYLVSKLDSGVPDRFTGSGSGTDFTLKISRVEAEDLGVYHCWQGTHFPYTFGGGTKLEIKRTVAAPSVFIFPPSDQLKSGTASVVCLLNNFYPREAKVQWKVDNALQSGNSQESVTEQDSKDSTYSLSSTLTLSKADYEKHKVYACEVTHQGLSSPVTKSFNRGEC
For the molecule B1, the “inhibition of cell proliferation” value (72 hours, FIG. 21B, Table 16) is recorded as “no functional activity”. For the setting “BaF3 cells expressing MPL/mutCALR Type 1, 72 hours, CellTiter-Glo”, the “IC50 for anti-mutCALR antibody mediated inhibition of cell proliferation” value was >60 µg/mL.
